2 molecules from patent US20220411536A1 (NUMAB THERAPEUTICS, published 2022) can be followed below.

Experiment [1] addresses T1, recombinant human IL-23R (custom-made by Trenzyme) (human, UniProt Q5VWK5 24-355).
T1 sequence (looked up): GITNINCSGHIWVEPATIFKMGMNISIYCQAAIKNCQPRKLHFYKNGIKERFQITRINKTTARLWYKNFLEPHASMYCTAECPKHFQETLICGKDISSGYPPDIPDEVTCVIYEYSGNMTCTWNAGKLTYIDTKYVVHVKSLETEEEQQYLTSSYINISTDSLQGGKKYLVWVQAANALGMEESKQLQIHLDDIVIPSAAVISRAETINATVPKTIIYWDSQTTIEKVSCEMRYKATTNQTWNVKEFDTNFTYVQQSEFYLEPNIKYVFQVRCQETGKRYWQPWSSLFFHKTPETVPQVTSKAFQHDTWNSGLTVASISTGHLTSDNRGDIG
The experiment can be described thus: SPR, immobilised IL-23R.

Experiment [2] has as its target T2, Fc-tagged human PD-L1 extracellular domain (SinoBiological, cat. 10084-H02H) (human, UniProt Q9NZQ7 19-238).
T2 construct: extracellular domain; also called hPD-L1; not shown: Fc tag of the bought protein
The experiment can be described thus: SPR, captured Fc-PD-L1 ECD, kinetic; kinetic analysis; the patent holds the steady state KD (3.47E-07 M) for the valid one.

For experiment [3], the target named is T3, CD3e on Jurkat PD-1 NFAT reporter T cells or on T cells of human PBMCs (human, UniProt P07766 23-207). The experiment can be described thus: cell-based or functional assay.
Experiment [4] concerns the target T4, human PD-L1 expressed on cells (CHO-PD-L1, HCC1954, HCC827) (human, UniProt Q9NZQ7 19-290).
T4 construct: whole, on cells; also called hPD-L1; PD-L1 expressing cells
The experiment can be described thus: flow cytometry, inhibition of biotinylated PD-1 binding to HCC827 cells.

Experiment [5] addresses T2, Fc-tagged human PD-L1 extracellular …. The experiment can be described thus: SPR, captured Fc-PD-L1 ECD, steady state.
Experiment [6] concerns the target T4, human PD-L1 expressed on cells …. The experiment can be described thus: flow cytometry, inhibition of biotinylated PD-1 binding to HCC1954 cells.
Experiment [7] concerns the target T5, human HER2 expressed on cells (SK-OV3, MCF-7, HCC1954, HCC827) (human, UniProt P04626 23-1255).
T5 construct: whole, on cells
The experiment can be described thus: flow cytometry, MCF-7 cells.

The target of experiment [8] is T5, human HER2 expressed on cells (SK-OV3, …). The experiment can be described thus: flow cytometry, SK-OV3 cells, no competitor.
The target is the same in experiment [9]. The experiment can be described thus: flow cytometry, SK-OV3 cells.
Experiment [10] addresses T6, recombinant human Her2 ECD (SinoBiological, cat. 10004-HCCH) (human, UniProt P04626 23-652).
T6 construct: extracellular domain; bought protein
The experiment can be described thus: SPR, immobilised Her2 ECD.

A further experiment deals with T7, mouse serum albumin (mouse, UniProt P07724 25-608).
T7 construct: also called MSA; mouse SA
The experiment can be described thus: SPR, immobilised MSA, pH 5.5.

In experiment [11] the target is T5, human HER2 expressed on cells (SK-OV3, …). The experiment can be described thus: flow cytometry, IFNy-stimulated HCC827 cells.
The target of experiment [12] is T3, CD3e on Jurkat PD-1 NFAT reporter T …. The experiment can be described thus: cell-based or functional assay. The source holds these as a separate data set.
The target in experiment [13] is T8, recombinant human CD3E ECD (SinoBiological, cat. 10977-H08H) (human, UniProt P07766 23-126).
T8 construct: extracellular domain; bought protein; also called CD3s
The experiment can be described thus: SPR, immobilised CD3e ECD, two-state model (ka1).

For experiment [14], the target named is T8, recombinant human CD3E ECD …. The experiment can be described thus: SPR, immobilised CD3e ECD, two-state model.
Experiment [15] addresses T5, human HER2 expressed on cells (SK-OV3, …). The experiment can be described thus: flow cytometry, IFNy-stimulated HCC1954 cells.
Experiment [16] has the same target. The experiment can be described thus: flow cytometry, SK-OV3 cells, competitor 50 nM pertuzumab.
For experiment [17], the target named is T8, recombinant human CD3E ECD …. The experiment can be described thus: SPR, immobilised CD3e ECD, two-state model (kd1).
The next experiment has as its target T9, human serum albumin (human, UniProt P02768 25-609).
T9 construct: also called HSA; human SA
The experiment can be described thus: SPR, immobilised HSA, pH 5.5.

For experiment [18], the target named is T3, CD3e on Jurkat PD-1 NFAT reporter T …. The experiment can be described thus: cell-based or functional assay. This is another data set of the same source.
Experiment [19] concerns the target T2, Fc-tagged human PD-L1 extracellular …. The experiment can be described thus: SPR, captured Fc-PD-L1 ECD, kinetic.
Experiment [20] has the same target. The experiment can be described thus: SPR.
Experiment [21] has the same target. The experiment can be described thus: SPR, captured Fc-PD-L1 ECD, scFv analyte, kinetic.
The target is the same in experiment [22]. The experiment can be described thus: SPR, captured Fc-PD-L1 ECD, scFv analyte, steady state.

B1: PRO1543 (multispecific antibody)
chain 1: not shown
chain 2: DIQMTQSPSSLSASVGDRVTITCQASQSINDYLAWYQQKPGKAPKLLIYKASTLASGVPSRFSGSGSGTDFTLTISSLQPEDFATYYCQAAYIITDIDNVFGTGTKVTVLGGGGGSGGGGSGGGGSGGGGSQVQLQESGPGLVKPSETLSLTCKVSGFSFSSGYDMCWIRQPPGKGLEWIGCVVAGSVDITYYASWAKGRVTISVDSSKNQFSLKLSSVTAADTAVYYCARKDAYSDAFNLWGQGTLVTVSSGGGGSGGGGSEVQLVESGGGLVQPGGSLRLSCAASGFSLSSYDMSWVRQAPGKGLAWIGASYASGPTYYASWAKGRFTISRDNSKNTVYLQMNSLRAEDTATYFCARGGWTGTSHSNIWGQGTLVTVSSGGGSGGGSEVQLVESGGGLVQPGGSLRLSCAASGFSFSSSYWICWVRQAPGKCLEWVGCVFTGDGTTYYASWAKGRFTISRDNSKNTVYLQMNSLRAEDTATYFCARPVSVYYYGMDLWGQGTLVTVSS
notes: also called trastuzumab-based MATCH4
For the molecule B1, the binding result in experiment [1] was “no binding (tested: 90 nM highest concentration)”. For the same molecule, the Kd in [2] is 20.9 nM; in experiment [5] it was 347 nM; in experiment [10], 0.406 nM; with mouse serum albumin it was 19.5 nM; in experiment [14] it was 15.7 nM; with human serum albumin it was 0.81 nM. Also, the “IC50, NFAT reporter, CHO-PD-L1 (A2 clone) cells” value in experiment [3] was found to be 29.2 nM. In addition, in experiment [3], the “IC50, NFAT reporter, HCC1954 cells” value came to 0.402 nM. Moreover, in experiment [3], the “IC50, NFAT reporter, HCC1954 cells, + nivolumab” value was 0.125 nM. For the same molecule, the “rel. max. activation vs PRO1497, NFAT reporter, HCC1954 cells” value in experiment [3] is 102%. Besides, the “rel. max. activation vs PRO1497 on HCC1954, NFAT reporter, CHO-PD-L1 (A2 clone) cells” value in [3] worked out at 62%. Also, the figures for the IC50 in [4] and in experiment [6] were 59.2 µg/mL and 0.601 µg/mL, respectively. The half-maximal effective concentration (EC50) in [7] was determined as 28.6 nM; in [8], 4.09 nM; in [9], 3.32 nM; in experiment [11] it was 3.9 nM; in [15] it was 27.8 nM; in [16], 4.16 nM. The koff in experiment [10] amounted to 6.26e-05 s⁻¹; with mouse serum albumin, 0.00117 s⁻¹; in [17] it was 0.00542 s⁻¹; in the experiment with human serum albumin, 0.000118 s⁻¹; in experiment [19], 0.000367 s⁻¹. For the same molecule, the kon in experiment [10] was determined as 154000 M⁻¹ s⁻¹; in the experiment with mouse serum albumin it was 60200 M⁻¹ s⁻¹; in [13], 190000 M⁻¹ s⁻¹; with human serum albumin, 145000 M⁻¹ s⁻¹; in [19], 17600 M⁻¹ s⁻¹. Further, the “target cell killing IC50, 16 h, HCC1954 cells” value in [12] was 0.00023 nM. Moreover, in [12], the “target cell killing IC50, 16 h, MCF-7 cells” value is 0.00311 nM. The KD1 in [14] was 28.5 nM. Besides, the kd2 in [14] was determined as 0.00503 s⁻¹. Moreover, the “T cell activation IC50, PBMC with HCC827 cells” value in [18] stood at 0.136 nM. In experiment [18], the “T cell activation IC50, PBMC with HCC1954 cells” value came to 0.049 nM.

B2: PRO1434 (scFv, V domains shown)
VH: QVQLQESGPGLVKPSETLSLTCKVSGFSFSSGYDMCWIRQPPGKGLEWIGCVVAGSVDITYYASWAKGRVTISVDSSKNQFSLKLSSVTAADTAVYYCARKDAYSDAFNLWGQGTLVTVSS
VL: DIQMTQSPSSLSASVGDRVTITCQASQSINDYLAWYQQKPGKAPKLLIYKASTLASGVPSRFSGSGSGTDFTLTISSLQPEDFATYYCQAAYIITDIDNVFGTGTKVTVLG
notes: also called 33-03-G02 VL-Q108A/G109A
As for B2, in [20], the “fold reduction of affinity vs PRO830” value worked out at 6500 fold. In experiment [21], this molecule returned a Kd of 492 nM, a koff of 0.535 s⁻¹ and a kon of 1.09e+06 M⁻¹ s⁻¹. Also, the Kd in [22] was 487 nM.
